The values below come from PMC2704562 (Biochimica et biophysica acta, 2009).

As usually defined, the Km is the concentration of substrate that gives half-maximal velocity. One may read the kcat as the maximal rate divided by the concentration of active sites. By stoichiometry N is commonly meant a count of units in the complex or per binding partner.

Substrate in data set [1]: Nc1ncnc2c1ncn2[C@@H]1O[C@H](COP(=O)(O)OP(=O)(O)OP(=O)(O)O)[C@@H](O)[C@H]1O
The experiment in a line: radiometric S-adenosylmethionine formation assay, Michaelis-Menten fit. The class given is biochemical, Methanocaldococcus jannaschii. The settings on record: 0.5 mM [methyl-14C]-L-methionine, ATP 0.05-2.5 mM, 55 °C.

The data set “AUC” deals with the molecule itself. Description: AUC.

B1: Mj-MAT W387F (enzyme, Methanococcus jannaschii, UniProt Q58605 1-406, looked up)
chain: MRNIIVKKLDVEPIEERPTEIVERKGLGHPDSICDGIAESVSRALCKMYMEKFGTILHHNTDQVELVGGHAYPKFGGGVMVSPIYILLSGRATMEILDKEKNEVIKLPVGTTAVKAAKEYLKKVLRNVDVDKDVIIDCRIGQGSMDLVDVFERQKNEVPLANDTSFGVGYAPLSTTERLVLETERFLNSDELKNEIPAVGEDIKVMGLREGKKITLTIAMAVVDRYVKNIEEYKEVIEKVRKKVEDLAKKIADGYEVEIHINTADDYERESVYLTVTGTSAEMGDDGSVGRGNRVNGLITPFRPMSMEAASGKNPVNHVGKIYNILANLIANDIAKLEGVKECYVRILSQIGKPINEPKALDIEIITEDSYDIKDIEPKAKEIANKFLDNIMEVQKMIVEGKVTTF
Turning to B1, in data set [1], the Km was 110 ± 30 µM and the kcat was 1.85 ± 0.08 s⁻¹. For the same protein, the “stoichiometry N” value in the data set “AUC” was 2.

B2: Mj-MAT W387F-Y267W (enzyme, Methanococcus jannaschii, UniProt Q58605 1-406, looked up)
chain: MRNIIVKKLDVEPIEERPTEIVERKGLGHPDSICDGIAESVSRALCKMYMEKFGTILHHNTDQVELVGGHAYPKFGGGVMVSPIYILLSGRATMEILDKEKNEVIKLPVGTTAVKAAKEYLKKVLRNVDVDKDVIIDCRIGQGSMDLVDVFERQKNEVPLANDTSFGVGYAPLSTTERLVLETERFLNSDELKNEIPAVGEDIKVMGLREGKKITLTIAMAVVDRYVKNIEEYKEVIEKVRKKVEDLAKKIADGYEVEIHINTADDWERESVYLTVTGTSAEMGDDGSVGRGNRVNGLITPFRPMSMEAASGKNPVNHVGKIYNILANLIANDIAKLEGVKECYVRILSQIGKPINEPKALDIEIITEDSYDIKDIEPKAKEIANKFLDNIMEVQKMIVEGKVTTF
As to B2, in “AUC”, the “stoichiometry N” value is 2.

B3: Mj-MAT W387F-Y344W (enzyme, Methanococcus jannaschii, UniProt Q58605 1-406, looked up)
chain: MRNIIVKKLDVEPIEERPTEIVERKGLGHPDSICDGIAESVSRALCKMYMEKFGTILHHNTDQVELVGGHAYPKFGGGVMVSPIYILLSGRATMEILDKEKNEVIKLPVGTTAVKAAKEYLKKVLRNVDVDKDVIIDCRIGQGSMDLVDVFERQKNEVPLANDTSFGVGYAPLSTTERLVLETERFLNSDELKNEIPAVGEDIKVMGLREGKKITLTIAMAVVDRYVKNIEEYKEVIEKVRKKVEDLAKKIADGYEVEIHINTADDYERESVYLTVTGTSAEMGDDGSVGRGNRVNGLITPFRPMSMEAASGKNPVNHVGKIYNILANLIANDIAKLEGVKECWVRILSQIGKPINEPKALDIEIITEDSYDIKDIEPKAKEIANKFLDNIMEVQKMIVEGKVTTF
Regarding B3, in “AUC”, the “stoichiometry N” value stood at 2.

B4: Mj-MAT W387F-Y323W (enzyme, Methanococcus jannaschii, UniProt Q58605 1-406, looked up)
chain: MRNIIVKKLDVEPIEERPTEIVERKGLGHPDSICDGIAESVSRALCKMYMEKFGTILHHNTDQVELVGGHAYPKFGGGVMVSPIYILLSGRATMEILDKEKNEVIKLPVGTTAVKAAKEYLKKVLRNVDVDKDVIIDCRIGQGSMDLVDVFERQKNEVPLANDTSFGVGYAPLSTTERLVLETERFLNSDELKNEIPAVGEDIKVMGLREGKKITLTIAMAVVDRYVKNIEEYKEVIEKVRKKVEDLAKKIADGYEVEIHINTADDYERESVYLTVTGTSAEMGDDGSVGRGNRVNGLITPFRPMSMEAASGKNPVNHVGKIWNILANLIANDIAKLEGVKECYVRILSQIGKPINEPKALDIEIITEDSYDIKDIEPKAKEIANKFLDNIMEVQKMIVEGKVTTF
On to B4, for which the “stoichiometry N” value in “AUC” stood at 2.

B5: Mj-MAT W387F-Y255W (enzyme, Methanococcus jannaschii, UniProt Q58605 1-406, looked up)
chain: MRNIIVKKLDVEPIEERPTEIVERKGLGHPDSICDGIAESVSRALCKMYMEKFGTILHHNTDQVELVGGHAYPKFGGGVMVSPIYILLSGRATMEILDKEKNEVIKLPVGTTAVKAAKEYLKKVLRNVDVDKDVIIDCRIGQGSMDLVDVFERQKNEVPLANDTSFGVGYAPLSTTERLVLETERFLNSDELKNEIPAVGEDIKVMGLREGKKITLTIAMAVVDRYVKNIEEYKEVIEKVRKKVEDLAKKIADGWEVEIHINTADDYERESVYLTVTGTSAEMGDDGSVGRGNRVNGLITPFRPMSMEAASGKNPVNHVGKIYNILANLIANDIAKLEGVKECYVRILSQIGKPINEPKALDIEIITEDSYDIKDIEPKAKEIANKFLDNIMEVQKMIVEGKVTTF
With B5, in the data set “AUC”, the “stoichiometry N” value worked out at 2.

B6: Mj-MAT W387F-Y49W (enzyme, Methanococcus jannaschii, UniProt Q58605 1-406, looked up)
chain: MRNIIVKKLDVEPIEERPTEIVERKGLGHPDSICDGIAESVSRALCKMWMEKFGTILHHNTDQVELVGGHAYPKFGGGVMVSPIYILLSGRATMEILDKEKNEVIKLPVGTTAVKAAKEYLKKVLRNVDVDKDVIIDCRIGQGSMDLVDVFERQKNEVPLANDTSFGVGYAPLSTTERLVLETERFLNSDELKNEIPAVGEDIKVMGLREGKKITLTIAMAVVDRYVKNIEEYKEVIEKVRKKVEDLAKKIADGYEVEIHINTADDYERESVYLTVTGTSAEMGDDGSVGRGNRVNGLITPFRPMSMEAASGKNPVNHVGKIYNILANLIANDIAKLEGVKECYVRILSQIGKPINEPKALDIEIITEDSYDIKDIEPKAKEIANKFLDNIMEVQKMIVEGKVTTF
Regarding B6, the “stoichiometry N” value in the data set “AUC” turned out to be 2.

B7: Mj-MAT W387F-Y72W (enzyme, Methanococcus jannaschii, UniProt Q58605 1-406, looked up)
chain: MRNIIVKKLDVEPIEERPTEIVERKGLGHPDSICDGIAESVSRALCKMYMEKFGTILHHNTDQVELVGGHAWPKFGGGVMVSPIYILLSGRATMEILDKEKNEVIKLPVGTTAVKAAKEYLKKVLRNVDVDKDVIIDCRIGQGSMDLVDVFERQKNEVPLANDTSFGVGYAPLSTTERLVLETERFLNSDELKNEIPAVGEDIKVMGLREGKKITLTIAMAVVDRYVKNIEEYKEVIEKVRKKVEDLAKKIADGYEVEIHINTADDYERESVYLTVTGTSAEMGDDGSVGRGNRVNGLITPFRPMSMEAASGKNPVNHVGKIYNILANLIANDIAKLEGVKECYVRILSQIGKPINEPKALDIEIITEDSYDIKDIEPKAKEIANKFLDNIMEVQKMIVEGKVTTF
B7: in data set [1], the Km turned out to be 110 ± 30 µM and the kcat was determined as 1.62 ± 0.15 s⁻¹. The “stoichiometry N” value in the data set “AUC” came to 2.

B8: Mj-MAT W387F-Y273W (enzyme, Methanococcus jannaschii, UniProt Q58605 1-406, looked up)
chain: MRNIIVKKLDVEPIEERPTEIVERKGLGHPDSICDGIAESVSRALCKMYMEKFGTILHHNTDQVELVGGHAYPKFGGGVMVSPIYILLSGRATMEILDKEKNEVIKLPVGTTAVKAAKEYLKKVLRNVDVDKDVIIDCRIGQGSMDLVDVFERQKNEVPLANDTSFGVGYAPLSTTERLVLETERFLNSDELKNEIPAVGEDIKVMGLREGKKITLTIAMAVVDRYVKNIEEYKEVIEKVRKKVEDLAKKIADGYEVEIHINTADDYERESVWLTVTGTSAEMGDDGSVGRGNRVNGLITPFRPMSMEAASGKNPVNHVGKIYNILANLIANDIAKLEGVKECYVRILSQIGKPINEPKALDIEIITEDSYDIKDIEPKAKEIANKFLDNIMEVQKMIVEGKVTTF
On to B8, for which, in the data set “AUC”, the “stoichiometry N” value amounted to 2.

B9: Mj-MAT W387F-Y233W (enzyme, Methanococcus jannaschii, UniProt Q58605 1-406, looked up)
chain: MRNIIVKKLDVEPIEERPTEIVERKGLGHPDSICDGIAESVSRALCKMYMEKFGTILHHNTDQVELVGGHAYPKFGGGVMVSPIYILLSGRATMEILDKEKNEVIKLPVGTTAVKAAKEYLKKVLRNVDVDKDVIIDCRIGQGSMDLVDVFERQKNEVPLANDTSFGVGYAPLSTTERLVLETERFLNSDELKNEIPAVGEDIKVMGLREGKKITLTIAMAVVDRYVKNIEEWKEVIEKVRKKVEDLAKKIADGYEVEIHINTADDYERESVYLTVTGTSAEMGDDGSVGRGNRVNGLITPFRPMSMEAASGKNPVNHVGKIYNILANLIANDIAKLEGVKECYVRILSQIGKPINEPKALDIEIITEDSYDIKDIEPKAKEIANKFLDNIMEVQKMIVEGKVTTF
In the case of B9, the “stoichiometry N” value in the data set “AUC” amounted to 2.

B10: Mj-MAT W387F-Y371W (enzyme, Methanococcus jannaschii, UniProt Q58605 1-406, looked up)
chain: MRNIIVKKLDVEPIEERPTEIVERKGLGHPDSICDGIAESVSRALCKMYMEKFGTILHHNTDQVELVGGHAYPKFGGGVMVSPIYILLSGRATMEILDKEKNEVIKLPVGTTAVKAAKEYLKKVLRNVDVDKDVIIDCRIGQGSMDLVDVFERQKNEVPLANDTSFGVGYAPLSTTERLVLETERFLNSDELKNEIPAVGEDIKVMGLREGKKITLTIAMAVVDRYVKNIEEYKEVIEKVRKKVEDLAKKIADGYEVEIHINTADDYERESVYLTVTGTSAEMGDDGSVGRGNRVNGLITPFRPMSMEAASGKNPVNHVGKIYNILANLIANDIAKLEGVKECYVRILSQIGKPINEPKALDIEIITEDSWDIKDIEPKAKEIANKFLDNIMEVQKMIVEGKVTTF
For B10, the “stoichiometry N” value in “AUC” was 2.

B11: Mj-MAT W387F-Y226W (enzyme, Methanococcus jannaschii, UniProt Q58605 1-406, looked up)
chain: MRNIIVKKLDVEPIEERPTEIVERKGLGHPDSICDGIAESVSRALCKMYMEKFGTILHHNTDQVELVGGHAYPKFGGGVMVSPIYILLSGRATMEILDKEKNEVIKLPVGTTAVKAAKEYLKKVLRNVDVDKDVIIDCRIGQGSMDLVDVFERQKNEVPLANDTSFGVGYAPLSTTERLVLETERFLNSDELKNEIPAVGEDIKVMGLREGKKITLTIAMAVVDRWVKNIEEYKEVIEKVRKKVEDLAKKIADGYEVEIHINTADDYERESVYLTVTGTSAEMGDDGSVGRGNRVNGLITPFRPMSMEAASGKNPVNHVGKIYNILANLIANDIAKLEGVKECYVRILSQIGKPINEPKALDIEIITEDSYDIKDIEPKAKEIANKFLDNIMEVQKMIVEGKVTTF
With B11, the “stoichiometry N” value in “AUC” is 2.

B12: Mj-MAT W387F-Y120W (enzyme, Methanococcus jannaschii, UniProt Q58605 1-406, looked up)
chain: MRNIIVKKLDVEPIEERPTEIVERKGLGHPDSICDGIAESVSRALCKMYMEKFGTILHHNTDQVELVGGHAYPKFGGGVMVSPIYILLSGRATMEILDKEKNEVIKLPVGTTAVKAAKEWLKKVLRNVDVDKDVIIDCRIGQGSMDLVDVFERQKNEVPLANDTSFGVGYAPLSTTERLVLETERFLNSDELKNEIPAVGEDIKVMGLREGKKITLTIAMAVVDRYVKNIEEYKEVIEKVRKKVEDLAKKIADGYEVEIHINTADDYERESVYLTVTGTSAEMGDDGSVGRGNRVNGLITPFRPMSMEAASGKNPVNHVGKIYNILANLIANDIAKLEGVKECYVRILSQIGKPINEPKALDIEIITEDSYDIKDIEPKAKEIANKFLDNIMEVQKMIVEGKVTTF
Take B12: the “stoichiometry N” value in the data set “AUC” is 2.

B13: Mj-MAT W387F-Y85W (enzyme, Methanococcus jannaschii, UniProt Q58605 1-406, looked up)
chain: MRNIIVKKLDVEPIEERPTEIVERKGLGHPDSICDGIAESVSRALCKMYMEKFGTILHHNTDQVELVGGHAYPKFGGGVMVSPIWILLSGRATMEILDKEKNEVIKLPVGTTAVKAAKEYLKKVLRNVDVDKDVIIDCRIGQGSMDLVDVFERQKNEVPLANDTSFGVGYAPLSTTERLVLETERFLNSDELKNEIPAVGEDIKVMGLREGKKITLTIAMAVVDRYVKNIEEYKEVIEKVRKKVEDLAKKIADGYEVEIHINTADDYERESVYLTVTGTSAEMGDDGSVGRGNRVNGLITPFRPMSMEAASGKNPVNHVGKIYNILANLIANDIAKLEGVKECYVRILSQIGKPINEPKALDIEIITEDSYDIKDIEPKAKEIANKFLDNIMEVQKMIVEGKVTTF
Turning to B13, the “stoichiometry N” value in “AUC” turned out to be 2.
